Data reported in paper PMC9701223, “GOLPH3 protein controls organ growth by interacting with TOR signaling proteins in Drosophila” (Cell Death & Disease, 2022).

T1: GST-Lst8 (Drosophila melanogaster, UniProt Q9W328 1-313)
T1 construct: Lst8 (lethal with SEC13 protein 8), Drosophila melanogaster; full-length cDNA cloned into pGEX-6p-2; Held on glutathione beads as bait; source: E. coli ArcticExpress (DE3), purified on glutathione-Sepharose 4B beads
T1 sequence (looked up): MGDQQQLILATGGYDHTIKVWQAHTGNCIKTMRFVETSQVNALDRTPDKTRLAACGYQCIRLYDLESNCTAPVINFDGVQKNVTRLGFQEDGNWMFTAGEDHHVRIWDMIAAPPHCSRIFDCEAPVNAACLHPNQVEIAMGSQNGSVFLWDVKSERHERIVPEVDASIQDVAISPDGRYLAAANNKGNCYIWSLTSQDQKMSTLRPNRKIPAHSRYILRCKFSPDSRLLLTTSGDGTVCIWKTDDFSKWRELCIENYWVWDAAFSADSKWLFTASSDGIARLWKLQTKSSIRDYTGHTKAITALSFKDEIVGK

B1: 6XHis-dGOLPH3 (natural protein, Drosophila melanogaster, UniProt Q9VQ93 1-294, looked up)
chain: MNRSDGLVRRSVKPRENGGAEGGLNANTPDDNQDALDNLKDQEDNIDDGDSKETRLTLMEEVLLLGLKDKEGYTSFWNDCISSGLRGCILIELGLRGRVMIEKSGMRRRGLCTRKLILKSDQQTGDVLLDEALKHIKETDPPETVQSWIEYLSGETWNPLKLRYQLKNVRERLAKNLVEKGVLTTEKQNFLLFDMTTHPLSDNVVKCRLVKKIQDSVLSKWVNDPQRMDKRMLALIFLAHASDVIENAFAPLNDDDYEVAMKRVRELLDLDFEAESAKPNANEILWAVFMAFTK
notes: Golgi phosphoprotein 3 (dGOLPH3), Drosophila melanogaster; source: bacterially expressed
B2: GST-Tctp (Drosophila Translationally controlled tumor protein) (natural protein, Drosophila melanogaster, UniProt Q9VGS2 1-172, looked up)
chain: MKIYKDIITGDEMFADTYKMKLVDDVIYEVYGKLITRQGDDIKLEGANASAEEADEGTDITSESGVDVVLNHRLTECFAFGDKKSYTLYLKDYMKKVLAKLEEKSPDQVDIFKTNMNKAMKDILGRFKELQFFTGESMDCDGMVALVEYREINGDSVPVLMFFKHGLEEEKC
notes: Translationally controlled tumor protein (Tctp), Drosophila melanogaster; full-length cDNA cloned into pGEX-6p-2; Held on glutathione beads as bait; source: E. coli BL21-Codon Plus, purified on glutathione-Sepharose 4B beads

Experiments:
GST-Lst8 = target: T1, GST-Lst8; assay: pull-down; direct interaction assay: bacterially expressed 6XHis-dGOLPH3 incubated with GST or GST-tagged proteins on glutathione-Sepharose 4B beads, 1 h, 4 °C; wash 25 mM Tris-HCl pH 7.4, 150 mM NaCl, 1% NP-40, 1 mM EDTA; western blot; conditions: both partners purified
6XHis-dGOLPH3 = target: B1; assay: as above; conditions: both partners purified

binding result (GST-Lst8) | binding result (6XHis-dGOLPH3) | Binder
binds | – | B1
– | binds | B2
